Assay results published in patent US20260176336A1.

Biological target: human LTBR endogenously expressed on cells (HepG2, A549, A375, HCC1187, RPMI-7951, primary human breast CAFs) (human) (UniProt P36941)
Experiment: cell-based or functional assay

human LTBR endogenously expressed on cells (HepG2, A549, A375, HCC1187, RPMI-7951, primary human breast CAFs) (human), sequence (P36941 31-435): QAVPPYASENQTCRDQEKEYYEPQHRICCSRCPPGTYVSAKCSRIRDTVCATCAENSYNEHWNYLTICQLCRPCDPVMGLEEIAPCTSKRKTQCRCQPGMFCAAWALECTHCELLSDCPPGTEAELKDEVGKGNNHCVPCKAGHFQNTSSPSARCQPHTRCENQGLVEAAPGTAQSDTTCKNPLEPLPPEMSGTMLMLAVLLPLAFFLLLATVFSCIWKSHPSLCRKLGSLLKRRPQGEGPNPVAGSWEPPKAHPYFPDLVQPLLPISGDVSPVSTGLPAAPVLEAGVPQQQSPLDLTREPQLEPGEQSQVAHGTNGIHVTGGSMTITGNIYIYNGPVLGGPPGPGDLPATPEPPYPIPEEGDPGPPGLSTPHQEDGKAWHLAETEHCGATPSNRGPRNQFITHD

B1: CBE-11 (antibody, from another filing, human IgG1, V domains shown)
VH: EVQLVESGGGLVKPGGSLRLSCAASGFTFSDYYMYWFRQAPGKGLEWVATISDGGSYTYYPDSVKGRFTISRDNAKNSLYLQMSSLRAEDTAVYYCAREENGNFYYFDYWGQGTTVTVSS
VL: DIQMTQSPSSLSASVGDRVTITCKAGQDIKSYLSWYQQKPGKAPKLLIYYATRLADGVPSRFSGSGSGTDYTLTISSLQPEDFATYYCLQHGESPWTFGGGTKLEIKR
B1 was tested, and the CCL19 upregulation, HCC1187:CAF Co-culture EC50 was 0.26 nM, the CCL19 upregulation, HCC1187 Monoculture EC50 was 0.23 nM and the HCC1187 monoculture assay CCL19 read-out EC50 was 0.239 nM. The HCC-1187:RPMI7951 (cis-activation) co-culture assay CCL5 read-out EC50 was 0.13 nM, the HCC-1187:RPMI7951 (trans-activation) co-culture assay, CCL19 Read-out EC50 was 0.084 nM and the HepG2 Reporter assay, HepG2:FAP-CHO-K1 Co-culture EC50 was 0.046 nM. For the same binder, the HepG2 Reporter assay, HepG2 Monoculture EC50 was 0.033 nM, the ICAM1 upregulation in CAFs monoculture assay EC50 was 0.044 nM and the chemokine (CCL5) induction in RPMI-7951 EC50 was 0.38 nM.
